Laboratory results reported in the DeepSol protein solubility set.

experiment: soluble on expression in E. coli; label from the status in PepcDB or PDB records

Soluble on expression in E. coli, not soluble:
MGSDKIHHHHHHMMQSAAINRRSFVKAAGLGFLATLTPRSLMALERADAVYASGIRAADGSFAIATVTERGEIVDQVALPARAHGIAFSASTGKTVAFARRPGTYAMIFDPWNKSEPIVISSREDRHFYGHGAFSPDGRLLYASENDFDGNRGMIGLYDATDRFTRIGEFETYGIGPHDMTVSDDGRLLIVANGGIETHPDFGRTKLNLGEMQPSLALIDAATGALVEKHVLPAEWAELSTRHVDLDGAGRIWFACQYEGHRKDLPPLVGHFAKGEDLSFIDLPEETTRRLANYVGAIAVNRSEGLVGITSPKGGASVTIDARTGKMLAETSVPDAAGIAPARNGFAVSSYDGDFLSTRSDVAWDQHIVRI
MGSDKIHHHHHHMMRDTPLLHRDDPAKDPLVGHIKVTREDWVNTARDVLVNSGVAQVKIATLAGRLDVSRSSFYWYFQNRDELLSALLQDWQTRNTRSITDHCARPSRSIAQALCNFFRCFVDTRQFDPGLDFAIREWARRNEDVRDAIDAADTARLDAVRAMFDRHDYAPEDADARARILYFMQLGYHALDLREDMETRMSRVSAYVLGFTGISPQNTDIEEFLDYVGDLAPHGISGASQRA
MGSDKIHHHHHHMMSTIYRHLSTARPALTKYATNAAVKSTTASSEASTLGALQYALSLDEPSHSWTKSQLKEIYHTPLLELTHAAQLQHRKWHDPTKVQLCTLMNIKSGGCSEDCKYCAQSSRNDTGLKAEKMVKVDEVIKEAEEAKRNGSTRFCLGAAWRDMKGRKSAMKRIQEMVTKVNDMGLETCVTLGMVDQDQAKQLKDAGLTAYNHNIDTSREHYSKVITTRTYDDRLQTIKNVQESGIKACTGGILGLGESEDDHIGFIYTLSNMSPHPESLPINRLVAIKGTPMAEELADPKSKKLQFDEILRTIATARIVMPKAIIRLAAGRYTMKETEQFVCFMAGCNSIFTGKKMLTTMCNGWDEDKAMLAKWGLQPMEAFKYDRS
MGSDKIHHHHHHMNAIQCETRTYEREYNTHDHSYGQMLFALHGAMEIQTPVYDTFQLEANFGLYLPPHVNHRFRAVARNEFIVVDIPARFLGDAVTTEQHVALDETWGALCHLFRGEAYQPASSQSLRPLVDYLTSKLAKKTLPASIHYMKQHFSEPLSLETLAAIEHYHPAYYSSWFKGYTGMSPSEYLQKLRVKAAKRLLGETTWSVARISIEVGYTHPSGLVRAFTKVEGMTPSAYRNTLH
MGSDKIHHHHHHMNDDIYDEMVRERGREYFLKNMVKYCVKRGNTLHGTVYGSDKYITKVDLKTKTGICTCPYQYNCKHAYALLESYKSGKYVDGDELFLNFSKLDKLEILKIFESIIEKHNLWDEFITEDKTLLDTAKNMLELTKIEKKNVFTFTSFLRNQFLKNAGNEELLLIIPDVIKYIQERKKLEEILFLIVDELFERGKTDKDTLKKLIELSRKYRELWMVKDNILDYEYFELLEY
MGSDKIHHHHHHMNDYLDDYEFNNLDFYRKNHGLQLYYNWSGEICWQETPDKPQEKLFSIIGMNATKVFLKPDPEHGEVGYRINRELGLFCDPDTQEILHSWKSPTASQPVPVVHIANRIVQGSVKPKKFVIPKGKGYITSVMEIPLEYPHPLAGDSKYLDYCPGEKFKGVEYFISNTCRPDATEVPPAKWARDCPWMPWMKLGYAHPAKLRFETTIFRVDSFEQLHPSLVNLVREKVPIYEFTPTESDEPNVTSIQYFKKNFESYLRGDIFPLEERY
MGSDKIHHHHHHMNDYYDLLDRVKILIKLGRYKEALRIIDEVIEDSPDVSFLYYKISILFTCRRFEEAKSTLNTAISIFPGSTVFRIWKMVLALETKDVLSMAQINFNDNSVASSQLNAPFQSMDFNDNYAYTFSKSVRDLIMKLGKSAIYCDLQQLKEKILTERISTETINGLYTDIMDYRNRDIVELSSYGRAFYFYSIGRIGDSFIEISSLPDHEVFKAFILGKYSDFLKQTYEIADPYTRAVRFHILRLRELSLKEIETASYIGMDELVMSKRIIEFNGSSLSTQVVVNKVPESHL
MGSDKIHHHHHHMNEGKILSGLLAPHPPHLVYGENPPQNEPRSQGGWEPLRWAYDQVRENIEHLKPDVLIVHSPHWITQVGHHFLGVPRLTGRSVDPIFPNLFRYDFGMNVDVELAEACCEEATKLGLVSKMMRNPSFRVDYGTITTLHMVRPQWDIPVVGISANNTPYYLNTKEGLGEMDLLGRATREAIRKTGRRAVLLASNTLSHWHFHEEPALPEDMSKEHPERYDGYLWDVRMIELMRKGHMKEVFELLPQFIEEAFAEIKSGAFTWMHAAMGYPELAGKLHGYGTVIGTGNAVIEWNLEDVGLSRLESVA
MGSDKIHHHHHHMNEPHGERISVEIPGLERILRGGFLPGRSYLVSGGPGTGKTTLGLQYLASSADGNGLLISLGESERNLRADALRIGLSLDGTSVIDLSPGADAEPEAAYTLLEPWEAEGVDIRSRIGALLPDGPPERVFIDALSQLRQLMPDAYQFRKQVMGLLEYLNSAGTTVLYTAEQGSSADTDLRYLGDGILELEHRENRRILRVLKFRGSGFSEGEHTLRLGDHGMQVFERLMPGEHRRTYVAEELPCGIGELDRLSGGGITRGTVTIISGPTGVGKTSLGLQYMHEAARRGERSVVYTFEESIGTLRTRCEAIGIPVSDMMAKGSLSIDEVEPLHYSPDEFAWRVRTEVEQQGARMVMLDSLAGFRQSVRGDDITAHAHALCHYLSNMGVTVLLVNEQSAIAGEELRPSEDDINYLADTIVLLRYMELDGGLRKAIGILKKRTGDFEKTLREFQITREGLRVGAPLYGLQGILQGIPSKIATLDATE
MGSDKIHHHHHHMNFIEQISENNQFPIIFVGSGITQRYFENAPTWEKLLKDIWLELFDEESYYAKAFELRERFENNDFDIYTNLASLLEKEVSKAFINGNIQVDNLDLKTAYELNISPFKQLVANRFSNLKIREEKIEEIKQFSQMLSKARIIITTNYDNFIEECLKTINVSVKINVGNKGLFLKSSDYGELYKIHGTVDDASTITITKEDYEKNVTKSALINAKILSNLVESPILFLGYSLTDENIRKLLTDFAENSPFDISESAQKIGVVEYLPDSESIETVVSSLPDLSVYYSCLKTDNFTNIYRLISKINQGFLPSEIAKYENVFRKIIEVKGESKDLKTVLTSYEDLANLTEDEIRSKNIVVAFGDERYIYKFPDFKEYVRSYFLDKETIPQEIVIRFIATQPVASHLPIKKYMFAMSEYISKDSNKYTENIKKRLSKEEELSLDDFTSSIGVPLLHSKTLERQTEIVGILEADVPDNVRYNFIATHIKNFPKEELFLLVEKIIDEGIFETSRRRFLKAFDLLHY
MGSDKIHHHHHHMNFTKIAVSAGCILALCAGCGANDTSSTKEKASSEKSGVTKEITASVNKMETIISKLNDSVEKGDQKEIEKKGKELNSYWLSFENDIRSDYPFEYTEIEKHLQPIYTEAQKDKPDAGKIKTESESLKASLEDLTEAKKSGKKASDQLAKAADEYKGYVKEQSDQLVKATEAFTGAVKSGDIEKSKTLYAKARVYYERIEPIAESLGDLDPKIDARENDVEEGDKWTGFHKLEKAIWKDQDISGEKATADQLLKDVKELDGSIQSLKLTPEQIVAGAMELLNEAGISKITGEEERYSRIDLVDLMANVEGSEAVYQTVKSALVKDHSDLTEKLDTEFSEFEVLMAKYKTNDQSYTSYDKLSEKQIRELSTKLTTLSETMSKIANVL
MGSDKIHHHHHHMNGKAVQLKEEADEPGWEVDPDDEWGVAVVETVGRQLKLRREALGMRAADFGTAVGYGEDMVYKIESGKRIPRPEFLDRADELLGAGGLLSAMKEDVKKVRYPKNVREIAKLEAQAVELGVYVGLSLHGLLQTPEHARALFEVWQPAYSPEEAERRMAARMARKAIFERSPAPALSFVQEEATLRRPVGGTMVWRQQLEHLLEVGQLRNVTLQVMPTNSEAHPGLSGRIEVLKFSDGTAVGRSDGAYNGRPISDPKQLRILELRYGTIRAQALPPRESLAFIEQLLGET
